Data on 3 molecules can be found in patent publication US20200392227A1 (LYVGEN BIOPHARMA, published 2020).

Residue numbers refer to the chain shown, from its start. Read-outs that look alike come from different tables or passages of the source.

For assay [1], the target named is T1, human FcRI protein (MednaBio, E1031) (human, UniProt P12314 16-288, limits assumed).
T1 construct: Bought; loaded on anti-penta-HIS biosensors; also called FcγRI
Description: BLI. The essentials: (§1)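 Binding was measured by biolayer interferometry on an Octet Red96 System. Commercial human Fc receptor proteins were loaded at 20 μg/mL onto anti-penta-HIS biosensors, which were then dipped into an 8-point 1:3 dilution series of test IgG starting at 300 nM in PBS with 0.1% BSA and 0.02% Tween-20, at pH 7.2 for Fcγ receptors and pH 6 for FcRn. Kd, kon and koff were obtained by global fitting, with data fitted to a 1:1 binding model.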

Assay [2] has as its target T2, human FcRn protein (MednaBio, E1032) (human, UniProt P55899 24-297; P61769 21-119).
T2 construct: Bought; assays at pH 6
The assay can be described thus: BLI. The method in brief:
as §1

Assay [3] concerns the target T3, human FcRIIIA-F158 protein (MednaBio, E1036) (human, UniProt P08637 17-208).
T3 construct: Bought; also called FcγRIIIA(F)
The assay can be described thus: BLI. The essentials:
as §1

The target in assay [4] is T4, human FcRIIA protein (MednaBio, E1033) (human, UniProt P12318 34-218, limits assumed).
T4 construct: Bought; also called FcγRIIA
T4 sequence (looked up): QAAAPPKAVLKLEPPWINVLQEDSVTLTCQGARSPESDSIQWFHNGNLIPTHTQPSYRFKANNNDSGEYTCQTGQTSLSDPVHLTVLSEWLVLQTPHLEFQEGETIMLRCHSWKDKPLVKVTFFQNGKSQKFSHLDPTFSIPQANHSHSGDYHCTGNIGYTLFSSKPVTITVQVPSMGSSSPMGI
The assay can be described thus: BLI. The method in brief: as §1

In assay [5] the target is T5, human FcRIIB/C protein (MednaBio, E1034) (human, UniProt P31994 43-217, limits assumed).
T5 construct: Bought as FcRIIB/C; also called FcγRIIB; CD32B
T5 sequence (looked up): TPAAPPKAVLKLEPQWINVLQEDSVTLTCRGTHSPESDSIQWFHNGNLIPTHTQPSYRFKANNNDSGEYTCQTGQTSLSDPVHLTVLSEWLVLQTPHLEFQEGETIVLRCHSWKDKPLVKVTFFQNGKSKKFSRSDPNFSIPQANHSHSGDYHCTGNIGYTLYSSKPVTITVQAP
The assay can be described thus: BLI. The essentials: as §1

For assay [6], the target named is T6, human FcRIIIA-V158 protein (MednaBio, E1035) (human, UniProt P08637 17-208).
T6 construct: Bought; also called FcγRIIIA(V); FcgRIIIA(V)
T6 sequence (P08637 17-208 F176V): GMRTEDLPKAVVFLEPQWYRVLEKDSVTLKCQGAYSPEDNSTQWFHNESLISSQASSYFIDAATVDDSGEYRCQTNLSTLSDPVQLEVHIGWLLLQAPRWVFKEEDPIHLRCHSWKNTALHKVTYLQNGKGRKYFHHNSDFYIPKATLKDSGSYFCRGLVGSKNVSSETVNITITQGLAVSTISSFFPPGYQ
The assay can be described thus: BLI. The method in brief: as §1

In assay [7] the target is T7, human FcRIIIB protein (MednaBio, E1037) (human, UniProt O75015 17-200).
T7 construct: Bought; also called FcγRIIIB; FcgRIIIB
T7 sequence (O75015 17-200 limits assumed): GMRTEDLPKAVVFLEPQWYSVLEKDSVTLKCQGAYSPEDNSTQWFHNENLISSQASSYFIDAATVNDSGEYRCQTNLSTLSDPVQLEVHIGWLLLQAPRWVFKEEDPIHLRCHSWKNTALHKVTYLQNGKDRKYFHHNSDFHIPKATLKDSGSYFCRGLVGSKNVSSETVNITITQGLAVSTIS
Description: BLI. The essentials: as §1

Assay [8] has as its target T8, human FcγRIIC expressed on CHO cells (human, UniProt P31995 43-323).
T8 construct: whole, on cells
T8 sequence (looked up): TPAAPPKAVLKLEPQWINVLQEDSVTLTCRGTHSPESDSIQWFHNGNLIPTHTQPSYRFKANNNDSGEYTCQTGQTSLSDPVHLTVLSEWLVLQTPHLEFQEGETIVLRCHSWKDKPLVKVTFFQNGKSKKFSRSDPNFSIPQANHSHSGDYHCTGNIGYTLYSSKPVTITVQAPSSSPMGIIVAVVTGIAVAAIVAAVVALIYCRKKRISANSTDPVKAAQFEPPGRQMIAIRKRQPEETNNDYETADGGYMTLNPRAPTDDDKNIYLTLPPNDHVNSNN
Description: FACS, CHO cells expressing FcγRIIC.

Assay [9] has as its target T9, human FcγRI expressed on CHO cells (human, UniProt P12314 16-374).
T9 construct: whole, on cells
Description: FACS, CHO cells expressing FcγRI. How it is done: For FACS analysis of the IgG mutants' binding to different FcγRs, FcγR overexpressing CHO cells were harvested using trypsin-EDTA and were suspended in cold staining buffer (3% BSA in PBS). Test IgG mutants, which were diluted in staining buffer, were added into the cells. The mixture was incubated 4° C. for 2 hours, and then washed twice with cold staining buffer and re-suspended in PE-labeled anti-human IgG followed by incubation at 4° C. for 2 hours. The mixture was washed twice with staining buffer and re-suspended in 2% PFA in PBS for FACS.

For assay [10], the target named is T1, human FcRI protein (MednaBio, E1031). The assay can be described thus: BLI. How it is done:
(§2) These IgG mutants were tested for binding to a panel of human Fc receptors (FcRs), including FcRn, using the Octet Red96 System (ForteBio, Model #Red96). Human FcR proteins were purchased commercially (FcRn, MednaBio, E1032; FcRI, MednaBio, E1031; FcRIIA, MednaBio, E1033; FcRIIB/C, MednaBio, E1034; FcRIIIA-F158, MednaBio, E1036; FcRIIIA-V158, MednaBio, E1035; FcRIIIB, MednaBio, E1037). All Fey receptor assays were performed at pH 7.2; all FcRn assays were performed at pH 6. The Fey receptors were loaded onto anti-penta-HIS1K (ForteBio, Cat #18-5122) biosensors at a concentration of 20 μg/mL. The loaded biosensors was then be dipped into an 8-point 1:3 dilution series of the test IgG molecules (including controls and the mutants described herein) in PBS with 0.1% BSA, 0.02% Tween-20 (pH 7.2) at a starting concentration of 300 nM. Kinetic analysis was performed using a 1:1 binding model and global fitting.
This is another data set of the same source.

The target of assay [11] is T2, human FcRn protein (MednaBio, E1032). The assay can be described thus: BLI. The method, then: as §2
This is another data set of the same source.

Assay [12] concerns the target T3, human FcRIIIA-F158 protein (MednaBio, …). The assay can be described thus: BLI. The method, then: as §2
The source holds these as a separate data set.

Assay [13] addresses T4, human FcRIIA protein (MednaBio, E1033). The assay can be described thus: BLI. How it is done:
as §2
This is another data set of the same source.

Assay [14] concerns the target T5, human FcRIIB/C protein (MednaBio, E1034). The assay can be described thus: BLI. How it is done: as §2
The source holds these as a separate data set.

Assay [15] concerns the target T6, human FcRIIIA-V158 protein (MednaBio, …). The assay can be described thus: BLI. The method, then: as §2
This is another data set of the same source.

For assay [16], the target named is T7, human FcRIIIB protein (MednaBio, E1037). The assay can be described thus: BLI. How it is done:
as §2
The source holds these as a separate data set.

T3 sequence (P08637 17-208 limits assumed): as the sequence (P08637 17-208 F176V) above, with V160F counted along it
T1 sequence (P12314 16-288 limits assumed): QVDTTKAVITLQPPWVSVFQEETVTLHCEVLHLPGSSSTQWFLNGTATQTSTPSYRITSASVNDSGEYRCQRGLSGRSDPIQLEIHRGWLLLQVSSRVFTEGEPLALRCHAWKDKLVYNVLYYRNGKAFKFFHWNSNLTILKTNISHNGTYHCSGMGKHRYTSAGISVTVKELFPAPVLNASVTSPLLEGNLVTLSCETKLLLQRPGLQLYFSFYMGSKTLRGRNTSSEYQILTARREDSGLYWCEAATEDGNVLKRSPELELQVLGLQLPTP
T2 sequence (P55899 24-297 limits assumed, form in doubt, chain 1 of 2): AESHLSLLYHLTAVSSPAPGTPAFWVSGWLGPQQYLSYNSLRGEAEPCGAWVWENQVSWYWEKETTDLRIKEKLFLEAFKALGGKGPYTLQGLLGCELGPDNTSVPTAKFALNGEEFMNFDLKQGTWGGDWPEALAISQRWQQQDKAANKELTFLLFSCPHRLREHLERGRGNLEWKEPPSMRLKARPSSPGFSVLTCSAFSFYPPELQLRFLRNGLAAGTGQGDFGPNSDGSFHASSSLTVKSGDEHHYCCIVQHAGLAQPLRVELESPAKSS
T2 sequence (P61769 21-119 limits assumed, form in doubt, chain 2 of 2): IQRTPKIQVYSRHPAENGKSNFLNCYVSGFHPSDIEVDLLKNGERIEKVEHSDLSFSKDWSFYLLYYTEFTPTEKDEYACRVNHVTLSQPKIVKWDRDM
T9 sequence (P12314 16-374): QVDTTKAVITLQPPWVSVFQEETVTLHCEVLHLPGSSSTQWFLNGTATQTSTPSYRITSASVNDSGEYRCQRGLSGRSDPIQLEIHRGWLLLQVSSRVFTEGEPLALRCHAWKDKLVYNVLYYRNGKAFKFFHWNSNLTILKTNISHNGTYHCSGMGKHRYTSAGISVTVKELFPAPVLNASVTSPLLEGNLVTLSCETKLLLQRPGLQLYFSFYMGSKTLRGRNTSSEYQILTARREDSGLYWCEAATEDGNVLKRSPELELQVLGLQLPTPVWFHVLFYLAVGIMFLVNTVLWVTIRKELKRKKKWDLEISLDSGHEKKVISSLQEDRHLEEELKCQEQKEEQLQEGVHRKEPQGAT

B1: anti-CD137 IgG2 with Fc variant G2m7 (antibody)
heavy: EVQLVQSGAEVKKPGESLRISCKGSGYSFSTYWISWVRQMPGKGLEWMGKIYPGDSYTNYSPSFQGQVTISADKSISTAYLQWSSLKASDTAMYYCARGYGIFDYWGQGTLVTVSSASTKGPSVFPLAPCSRSTSESTAALGCLVKDYFPEPVTVSWNSGALTSGVHTFPAVLQSSGLYSLSSVVTVPSSNFGTQTYTCNVDHKPSNTKVDKTVERKCCVECPPCPAPPVAGPSVFLFPPKPKDTLMISRTPEVTCVVVDVEHEDPEVQFNWYVDGVEVHNAKTKPREEQFNSTFRVVSVLTVVHQDWLNGKEYKCKVSNKGLPAPIEKTISKTKGQPREPQVYTLPPSREEMTKNQVSLTCLVKGFYPSDIAVEWESNGQPENNYKTTPPMLDSDGSFFLYSKLTVDKSRWQQGNVFSCSVMHEALHNHYTQKSLSLSPGK
light: SYELTQPPSVSVSPGQTASITCSGDNIGDQYAHWYQQKPGQSPVLVIYQDKNRPSGIPERFSGSNSGNTATLTISGTQAMDEADYYCATYTGFGSLAVFGGGTKLTVLGQPKAAPSVTLFPPSSEELQANKATLVCLISDFYPGAVTVAWKADSSPVKAGVETTTPSKQSNNKYAASSYLSLTPEQWKSHRSYSCQVTHEGSTVEKTVAPTECS
notes: copies: 2 + 2
On to B1, for which the binding result in [1] is reported as “no binding (tested: 300 nM)”; in [3], “no binding (tested: 300 nM)”; in [6], “no binding (tested: 300 nM)”; in assay [7] it was “no binding (tested: 300 nM)”; in assay [8], “binds”; in assay [9] it was “no binding (tested: 10 ug/ml)”. The Kd in [2] came to 5.7 nM; in [4] it was 120 nM; in assay [5], 170 nM. In addition, the results for the koff in assay [2], in [4] and in assay [5] were 0.0052 s⁻¹, 0.028 s⁻¹ and 0.052 s⁻¹, respectively. Besides, the kon in assay [2] stood at 910000 M⁻¹ s⁻¹; in assay [4], 230000 M⁻¹ s⁻¹; in assay [5], 310000 M⁻¹ s⁻¹.

B2: anti-CD137 IgG4 with Fc variant G4m1 (antibody)
heavy: EVQLVQSGAEVKKPGESLRISCKGSGYSFSTYWISWVRQMPGKGLEWMGKIYPGDSYTNYSPSFQGQVTISADKSISTAYLQWSSLKASDTAMYYCARGYGIFDYWGQGTLVTVSSASTKGPSVFPLAPCSRSTSESTAALGCLVKDYFPEPVTVSWNSGALTSGVHTFPAVLQSSGLYSLSSVVTVPSSSLGTKTYTCNVDHKPSNTKVDKRVESKYGPPCPPCPAPEFLSVFLFPPKPKDTLMISRTPEVTCVVVDVSQEDPEVQFNWYVDGVEVHNAKTKPREEQFNSTYRVVSVLTVLHQDWLNGKEYKCKVSNKGLPSSIEKTISKAKGQPREPQVYTLPPSQEEMTKNQVSLTCLVKGFYPSDIAVEWESNGQPENNYKTTPPVLDSDGSFFLYSRLTVDKSRWQEGNVFSCSVMHEALHNHYTQKSLSLSLGK
light: B1 light
notes: copies: 2 + 2
In the case of B2, the Kd amounted to 130 nM in assay [10], 19 nM in assay [11], 450 nM in [13] and 250 nM in assay [14]. Moreover, the koff in assay [10] stood at 0.097 s⁻¹; in [11], 0.013 s⁻¹; in assay [13] it was 0.11 s⁻¹; in assay [14], 0.11 s⁻¹. The kon turned out to be 740000 M⁻¹ s⁻¹ in assay [10], 690000 M⁻¹ s⁻¹ in [11], 240000 M⁻¹ s⁻¹ in assay [13] and 420000 M⁻¹ s⁻¹ in [14]. The binding result in assay [12], in assay [15] and in assay [16] was “no binding (tested: 300 nM)” each time.

B3: anti-CD137 IgG4 with Fc variant G4m10 (antibody)
heavy: B2 heavy with F230V, L231S, L321F
light: B1 light
notes: copies: 2 + 2
For the molecule B3, the binding result is reported as “no binding (tested: 300 nM)” in [10]; “no binding (tested: 300 nM)” in assay [12]; “no binding (tested: 300 nM)” in assay [14]; “no binding (tested: 300 nM)” in assay [15]; “no binding (tested: 300 nM)” in assay [16]; “no binding (tested: 10 ug/ml)” in assay [8]. Further, the Kd in [11] was found to be 11 nM; in assay [13], 83 nM. Further, the koff in assay [11] worked out at 0.0055 s⁻¹; in [13], 0.037 s⁻¹. Moreover, the results for the kon in [11] and in assay [13] were 510000 M⁻¹ s⁻¹ and 450000 M⁻¹ s⁻¹, respectively.
